# Measurements reported in the supplement of paper PMC10567573.
# B1: ZNF263 (parent)
# chain: EKPYKCPECGEIFAHSSNLLRHQR
# B2: GFOD1 (parent)
# chain: EEAEELAKEMSVPFYTSRIDEVLL
# Variants of: B1
# Experiment: protein stability index of a GFP-peptide fusion (GPS, HEK-293T) (PSI 1-6); higher = more stable
# Conditions: c terminus: a fixed tail appended
# 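Note: lentivirally expressed fusions sorted by FACS into six bins by GFP to DsRed ratio, PSI derived from sequencing read proportions per bin multiplied by bin number.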
row,Variant,protein stability index
1,EKPYKCPECGEIFAHSWNLLRHQR [S17W],2.24
2,EKPYKCPECGEIFAHSANLLRHQR [S17A],2.43
3,EKPYKCPECGEIFAHSNNLLRHQR [S17N],2.75
4,EKPYKCPECGEIFAHSGNLLRHQR [S17G],2.63
5,EKPYKCPECGEIFAHSHNLLRHQR [S17H],3.51
6,EKPYKCPECGEIFAHSSNLLCHQR [R21C],3.98
7,EKPYKCPECGEIFAHSSNLLNHQR [R21N],3.29
8,EKPYKCPECGEIFAHSSNLLSHQR [R21S],2.89
9,EKPYKCPECGEIFAHSSNLLTHQR [R21T],4.27
10,EKPYKCPECGEIFAHSSFLLRHQR [N18F],2.54
11,HKPYKCPECGEIFAHSSNLLRHQR [E1H],2.75
12,PKPYKCPECGEIFAHSSNLLRHQR [E1P],2.2
13,GKPYKCPECGEIFAHSSNLLRHQR [E1G],1.99
14,EKPYKCPECGENFAHSSNLLRHQR [I12N],1.83
15,EKPYKCPECGEAFAHSSNLLRHQR [I12A],2.29
16,EKPYKCPECGEPFAHSSNLLRHQR [I12P],1.73
17,EKPYKCPECGEHFAHSSNLLRHQR [I12H],1.57
18,EKPYKCPECGEFFAHSSNLLRHQR [I12F],1.82
19,EKPYKCPECGEYFAHSSNLLRHQR [I12Y],3.01
20,EKPYKCPECGELFAHSSNLLRHQR [I12L],3.66
21,EKPYKCPECGEIFAHSSNLLRHAR [Q23A],2.21
22,EKPYKCPECGEIFAHSSNLLRHPR [Q23P],2.11
23,EKPYKCPECGEIFAHSSNLLRHFR [Q23F],2.35

row,Variant,protein stability index
1,EVPYKCPECGEIFAHSSNLLRHQR [K2V],3
2,EKPYKCPECGEIFAHSSNHLRHQR [L19H],3.63
3,EKPYKCPECGEIFAHSSNMLRHQR [L19M],2.38
4,EKPYKCPECGEIFAHSSNPLRHQR [L19P],2.18
5,EKPYKCPECGEIFAHSSNVLRHQR [L19V],2.92
6,EKPYKCPECGEIFAHSSNTLRHQR [L19T],2.16
7,EKPYGCPECGEIFAHSSNLLRHQR [K5G],2.31
8,EKPYPCPECGEIFAHSSNLLRHQR [K5P],2.55
9,EKPYFCPECGEIFAHSSNLLRHQR [K5F],2.66
10,EKPYECPECGEIFAHSSNLLRHQR [K5E],3.02
11,EKPYKCPECGEIFAHSSNLLRHQD [R24D],3.96
12,EKPYKCPECGEIFAHSSNLLRHQI [R24I],3.25
13,EKPYKCPECGEIFAHSSNLLRHQT [R24T],3.24
14,EKPYKCPECGEIFAHSSNLLRHQW [R24W],2.74
15,EKPYKCPECGEIFAHSSNLLRHQF [R24F],3.32
16,EKPYKCPECGEIFAHSSNLLRHQN [R24N],3.92
17,EKPYKCPECGEIFIHSSNLLRHQR [A14I],2.27
18,EKPYKCPECGEIFRHSSNLLRHQR [A14R],2.57
19,EKPYKCPECGEIFYHSSNLLRHQR [A14Y],2.79
20,EKPYKCPECGEIFQHSSNLLRHQR [A14Q],2.45
21,EKPYKCPECGEIFAHSSNLLRCQR [H22C],2.43
22,EKPYKCPECGEIFAHSSNLLRIQR [H22I],1.34
23,EKPYKCPECGEIFAHSSNLLRQQR [H22Q],1.54

row,Variant,protein stability index
1,EKPYKCPECGEIFAHSSNLLRRQR [H22R],3.03
2,EKPYKCPECGEIFAHSSNLLRDQR [H22D],3.17
3,EKPYKCPMCGEIFAHSSNLLRHQR [E8M],1.95
4,EKPYKCPHCGEIFAHSSNLLRHQR [E8H],3.07
5,EKPYKCPPCGEIFAHSSNLLRHQR [E8P],2.74
6,EKPYKCPYCGEIFAHSSNLLRHQR [E8Y],2.86
7,EKPYKCPEVGEIFAHSSNLLRHQR [C9V],2.92
8,EKPYKCPEIGEIFAHSSNLLRHQR [C9I],2.72
9,EKPYKCPELGEIFAHSSNLLRHQR [C9L],2.93
10,EKPYKCPEEGEIFAHSSNLLRHQR [C9E],4.06
11,EKPYKCPETGEIFAHSSNLLRHQR [C9T],3.02
12,EKPYKCPECGEIKAHSSNLLRHQR [F13K],2.55
13,EKPYKCPECGEIRAHSSNLLRHQR [F13R],3.24
14,EKPYKCPECGEIFAESSNLLRHQR [H15E],3.3
15,EKPYKCPECGEIFACSSNLLRHQR [H15C],3.26
16,EKPNKCPECGEIFAHSSNLLRHQR [Y4N],2.45
17,EKPPKCPECGEIFAHSSNLLRHQR [Y4P],2.12
18,EKPTKCPECGEIFAHSSNLLRHQR [Y4T],2.91
19,EKPFKCPECGEIFAHSSNLLRHQR [Y4F],2.15
20,EKPEKCPECGEIFAHSSNLLRHQR [Y4E],2.99
21,EKPYKCPECGDIFAHSSNLLRHQR [E11D],2.38
22,EKPYKCPECGQIFAHSSNLLRHQR [E11Q],2.68
23,EKPYKCPECGFIFAHSSNLLRHQR [E11F],1.79

row,Variant,protein stability index
1,EKPYKCPECGVIFAHSSNLLRHQR [E11V],1.64
2,EKPYKCPECGAIFAHSSNLLRHQR [E11A],2.03
3,EKPYKCPECGLIFAHSSNLLRHQR [E11L],1.76
4,EKPYKCVECGEIFAHSSNLLRHQR [P7V],2.68
5,EKPYKCYECGEIFAHSSNLLRHQR [P7Y],2.7
6,EKPYKYPECGEIFAHSSNLLRHQR [C6Y],3.05
7,EKPYKAPECGEIFAHSSNLLRHQR [C6A],3.37
8,EKPYKSPECGEIFAHSSNLLRHQR [C6S],2.88
9,EKPYKDPECGEIFAHSSNLLRHQR [C6D],3.49
10,EKPYKCPECGEIFAHSSNLCRHQR [L20C],4.11
11,EKPYKCPECGEIFAHSSNLNRHQR [L20N],1.59
12,EKPYKCPECGEIFAHSSNLQRHQR [L20Q],2.96
13,EKPYKCPECGEIFAHSSNLGRHQR [L20G],2.29
14,EKPYKCPECGEIFAHNSNLLRHQR [S16N],1.33
15,EKPYKCPECGEIFAHFSNLLRHQR [S16F],3.53
16,EKPYKCPECGEIFAHGSNLLRHQR [S16G],2.48
17,EKPYKCPECGEIFAHLSNLLRHQR [S16L],3.26
18,EKEYKCPECGEIFAHSSNLLRHQR [P3E],2.91
19,EKPYKCPECCEIFAHSSNLLRHQR [G10C],1.94
20,EKPYKCPECHEIFAHSSNLLRHQR [G10H],2.59

# Variants of: B2
# Experiment: as above
# Conditions: c terminus: a fixed tail appended
row,Variant,protein stability index
1,EEAEEEAKEMSVPFYTSRIDEVLL [L6E],4.67
2,EEAEEDAKEMSVPFYTSRIDEVLL [L6D],4.99
3,EEAEENAKEMSVPFYTSRIDEVLL [L6N],4.51
4,EEAEEYAKEMSVPFYTSRIDEVLL [L6Y],3.95
5,EEAEEQAKEMSVPFYTSRIDEVLL [L6Q],3.7
